Laboratory results: the FLAb antibody collection (doi:10.1101/2023.12.08.570889)

B1: unnamed (protein)
chain 1: EVQLLESGGGLVQPGGSLRLSCAASGFTFSQYGMDWVRQAPGKGLEWVSGIGPSGGSTVYADSVKGRFTISRDNSKNTLYLQMNSLRAEDTAVYYCTRDGSAYYYAFDYWGQGTTVTVSS
chain 2: DIQMTQSPSSLSASVGDRVTITCQASQDISNYLNWYQQKPGKAPKLLIYDASNLETGVPSRFSGSGSGTDFTFTISSLQPEDIATYYCQQADSFPVTFGGGTKVEIK
B2: unnamed (protein)
chain 1: EVQLLESGGGLVQPGGSLRLSCAASGFTFSSYAMDWVRQAPGKGLEWVSGISADGGSTVYADSVKGRFTISRDNSKNTLYLQMNSLRAEDTAVYYCTRGGPAYYYAFDYWGQGTTVTVSS
chain 2: DIQMTQSPSSLSASVGDRVTITCQASQDISNYLNWYQQKPGKAPKLLIYDASNLETGVPSRFSGSGSGTDFTFTISSLQPEDIATYYCQQADSFPVTFGGGTKVEIK
B3: unnamed (protein)
chain 1: EVQLLESGGGLVQPGGSLRLSCAASGFTFSSYAMDWVRQAPGKGLEWVSGISSDGGSTVYADSVKGRFTISRDNSKNTLYLQMNSLRAEDTAVYYCARGGPAYYYAFDVWGQGTTVTVSS
chain 2: DIQMTQSPSSLSASVGDRVTITCQASQDISNYLNWYQQKPGKAPKLLIYDASNLETGVPSRFSGSGSGTDFTFTISSLQPEDIATYYCQQADSFPVTFGGGTKVEIK
B4: unnamed (protein)
chain 1: EVQLLESGGGLVQPGGSLRLSCAASGFTFSSYAMDWVRQAPGKGLEWVSGISSDGGSTVYADSVKGRFTISRDNSKNTLYLQMNSLRAEDTAVYYCTRDGPWYYYAFDVWGQGTTVTVSS
chain 2: DIQMTQSPSSLSASVGDRVTITCQASQDISNYLNWYQQKPGKAPKLLIYDASNLETGVPSRFSGSGSGTDFTFTISSLQPEDIATYYCQQADSFPVTFGGGTKVEIK
B5: unnamed (protein)
chain 1: EVQLLESGGGLVQPGGSLRLSCAASGFTFSSYAMDWVRQAPGKGLEWVSGISGDGGSTVYADSVKGRFTISRDNSKNTLYLQMNSLRAEDTAVYYCTRGGPAYYYAFDYWGQGTTVTVSS
chain 2: DIQMTQSPSSLSASVGDRVTITCQASQDISNYLNWYQQKPGKAPKLLIYDASNLETGVPSRFSGSGSGTDFTFTISSLQPEDIATYYCQQADSFPVTFGGGTKVEIK
B6: unnamed (protein)
chain 1: EVQLLESGGGLVQPGGSLRLSCAASGFTFSSYAMDWVRQAPGKGLEWVSGISSDGGSTVYADSVKGRFTISRDNSKNTLYLQMNSLRAEDTAVYYCARGGPAYYYGFDVWGQGTTVTVSS
chain 2: DIQMTQSPSSLSASVGDRVTITCQASQDISNYLNWYQQKPGKAPKLLIYDASNLETGVPSRFSGSGSGTDFTFTISSLQPEDIATYYCQQADSFPVTFGGGTKVEIK
B7: unnamed (protein)
chain 1: EVQLLESGGGLVQPGGSLRLSCAASGFTFSSYGMDWVRQAPGKGLEWVSGISSDGGSTVYADSVKGRFTISRDNSKNTLYLQMNSLRAEDTAVYYCTRDGPAYYYAFDVWGQGTTVTVSS
chain 2: DIQMTQSPSSLSASVGDRVTITCQASQDISNYLNWYQQKPGKAPKLLIYDASNLETGVPSRFSGSGSGTDFTFTISSLQPEDIATYYCQQADSFPVTFGGGTKVEIK
B8: unnamed (protein)
chain 1: EVQLLESGGGLVQPGGSLRLSCAASGFTFSSYGMDWVRQAPGKGLEWVSGISSDGGSTVYADSVKGRFTISRDNSKNTLYLQMNSLRAEDTAVYYCTRDGPSYYYAFDVWGQGTTVTVSS
chain 2: DIQMTQSPSSLSASVGDRVTITCQASQDISNYLNWYQQKPGKAPKLLIYDASNLETGVPSRFSGSGSGTDFTFTISSLQPEDIATYYCQQADSFPVTFGGGTKVEIK
B9: unnamed (protein)
chain 1: EVQLLESGGGLVQPGGSLRLSCAASGFTFSSYAMDWVRQAPGKGLEWVSGISSDGGSTVYADSVKGRFTISRDNSKNTLYLQMNSLRAEDTAVYYCTRDGPYYYYAFDVWGQGTTVTVSS
chain 2: DIQMTQSPSSLSASVGDRVTITCQASQDISNYLNWYQQKPGKAPKLLIYDASNLETGVPSRFSGSGSGTDFTFTISSLQPEDIATYYCQQADSFPVTFGGGTKVEIK
B10: unnamed (protein)
chain 1: EVQLLESGGGLVQPGGSLRLSCAASGFTFSQYGMDWVRQAPGKGLEWVSGIGPSGGSTVYADSVKGRFTISRDNSKNTLYLQMNSLRAEDTAVYYCTRGGPYYYYGMDVWGQGTTVTVSS
chain 2: DIQMTQSPSSLSASVGDRVTITCQASQDISNYLNWYQQKPGKAPKLLIYDASNLETGVPSRFSGSGSGTDFTFTISSLQPEDIATYYCQQADSFPVTFGGGTKVEIK
B11: unnamed (protein)
chain 1: EVQLLESGGGLVQPGGSLRLSCAASGFTFSSYGMDWVRQAPGKGLEWVSGISADGGSTVYADSVKGRFTISRDNSKNTLYLQMNSLRAEDTAVYYCTRGGPAYYYAFDVWGQGTTVTVSS
chain 2: DIQMTQSPSSLSASVGDRVTITCQASQDISNYLNWYQQKPGKAPKLLIYDASNLETGVPSRFSGSGSGTDFTFTISSLQPEDIATYYCQQADSFPVTFGGGTKVEIK
B12: unnamed (protein)
chain 1: EVQLLESGGGLVQPGGSLRLSCAASGFTFSSYAMDWVRQAPGKGLEWVSGISGDGGSTVYADSVKGRFTISRDNSKNTLYLQMNSLRAEDTAVYYCTRGGPAYYYGFDVWGQGTTVTVSS
chain 2: DIQMTQSPSSLSASVGDRVTITCQASQDISNYLNWYQQKPGKAPKLLIYDASNLETGVPSRFSGSGSGTDFTFTISSLQPEDIATYYCQQADSFPVTFGGGTKVEIK
B13: unnamed (protein)
chain 1: EVQLLESGGGLVQPGGSLRLSCAASGFTFSSYAMDWVRQAPGKGLEWVSGISSDGGSTVYADSVKGRFTISRDNSKNTLYLQMNSLRAEDTAVYYCARDGPSYYYAFDVWGQGTTVTVSS
chain 2: DIQMTQSPSSLSASVGDRVTITCQASQDISNYLNWYQQKPGKAPKLLIYDASNLETGVPSRFSGSGSGTDFTFTISSLQPEDIATYYCQQADSFPVTFGGGTKVEIK
B14: unnamed (protein)
chain 1: EVQLLESGGGLVQPGGSLRLSCAASGFTFSSYGMDWVRQAPGKGLEWVSGISSDGGSTVYADSVKGRFTISRDNSKNTLYLQMNSLRAEDTAVYYCTRGGPAYYYAFDVWGQGTTVTVSS
chain 2: DIQMTQSPSSLSASVGDRVTITCQASQDISNYLNWYQQKPGKAPKLLIYDASNLETGVPSRFSGSGSGTDFTFTISSLQPEDIATYYCQQADSFPVTFGGGTKVEIK
B15: unnamed (protein)
chain 1: EVQLLESGGGLVQPGGSLRLSCAASGFTFSSYAMDWVRQAPGKGLEWVSGISSDGGSTVYADSVKGRFTISRDNSKNTLYLQMNSLRAEDTAVYYCARGGPSYYYAFDVWGQGTTVTVSS
chain 2: DIQMTQSPSSLSASVGDRVTITCQASQDISNYLNWYQQKPGKAPKLLIYDASNLETGVPSRFSGSGSGTDFTFTISSLQPEDIATYYCQQADSFPVTFGGGTKVEIK
B16: unnamed (protein)
chain 1: EVQLLESGGGLVQPGGSLRLSCAASGFTFSQYGMDWVRQAPGKGLEWVSGIGPSGGSTVYADSVKGRFTISRDNSKNTLYLQMNSLRAEDTAVYYCARRGRYGLYAMDYWGQGTTVTVSS
chain 2: DIQMTQSPSSLSASVGDRVTITCQASQDISNYLNWYQQKPGKAPKLLIYDASNLETGVPSRFSGSGSGTDFTFTISSLQPEDIATYYCQQADSFPVTFGGGTKVEIK
B17: unnamed (protein)
chain 1: EVQLLESGGGLVQPGGSLRLSCAASGFTFSSYAMDWVRQAPGKGLEWVSGISYDGGSTVYADSVKGRFTISRDNSKNTLYLQMNSLRAEDTAVYYCARGGPAYYYAFDVWGQGTTVTVSS
chain 2: DIQMTQSPSSLSASVGDRVTITCQASQDISNYLNWYQQKPGKAPKLLIYDASNLETGVPSRFSGSGSGTDFTFTISSLQPEDIATYYCQQADSFPVTFGGGTKVEIK
B18: unnamed (protein)
chain 1: EVQLLESGGGLVQPGGSLRLSCAASGFTFSSYAMDWVRQAPGKGLEWVSGISSDGGSTVYADSVKGRFTISRDNSKNTLYLQMNSLRAEDTAVYYCTRGGPYYYYAFDVWGQGTTVTVSS
chain 2: DIQMTQSPSSLSASVGDRVTITCQASQDISNYLNWYQQKPGKAPKLLIYDASNLETGVPSRFSGSGSGTDFTFTISSLQPEDIATYYCQQADSFPVTFGGGTKVEIK
B19: unnamed (protein)
chain 1: EVQLLESGGGLVQPGGSLRLSCAASGFTFSSYAMDWVRQAPGKGLEWVSGISADGGSTVYADSVKGRFTISRDNSKNTLYLQMNSLRAEDTAVYYCTRDGPAYYYGFDVWGQGTTVTVSS
chain 2: DIQMTQSPSSLSASVGDRVTITCQASQDISNYLNWYQQKPGKAPKLLIYDASNLETGVPSRFSGSGSGTDFTFTISSLQPEDIATYYCQQADSFPVTFGGGTKVEIK

target: FXI; test: Kd (SPR)

Going from B1 to B2, the Kd rises from 248 nM to 707 nM (2.9-fold).

B3 and B4 are within 1.5-fold of each other in Kd: 635 nM for the first, 692 nM for the second.

Going from B5 to B6, the Kd falls from 857 nM to 310 nM (2.8-fold).

B7 and B8 are within 1.5-fold of each other in Kd: 58 nM for the first, 80.9 nM for the second.

Compared with B9, B10 is 6.8-fold lower in Kd: 693 nM for the first, 102 nM for the second. The second binds more tightly here.

First: B11
Second: B12
The Kd of the first is 2.2-fold lower: 245 nM for the first, 546 nM for the second. The first binds more tightly here.

Compared with B13, B14 is 5.7-fold higher in Kd: 51.1 nM for the first, 293 nM for the second.

Going from B15 to B16, the Kd rises from 505 nM to 2040 nM (4-fold).

Compared with B17, B18 is 1.9-fold lower in Kd: 702 nM for the first, 375 nM for the second. The second binds more tightly here.

With B19 the Kd was 485 nM.
